According to patent US7329737 (DYAX, dated 2008):

T1: Human Tissue Kallikrein 8 (hK8) (human, UniProt O60259 33-260)
T1 sequence (looked up): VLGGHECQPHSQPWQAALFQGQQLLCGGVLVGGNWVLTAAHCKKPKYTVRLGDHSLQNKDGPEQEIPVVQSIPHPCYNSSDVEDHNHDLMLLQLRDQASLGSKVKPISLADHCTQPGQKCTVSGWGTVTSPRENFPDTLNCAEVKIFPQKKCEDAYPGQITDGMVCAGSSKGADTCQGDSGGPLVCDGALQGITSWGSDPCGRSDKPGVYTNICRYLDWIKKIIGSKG

T2: Human elastase (human, UniProt P08246 30-247)
T2 construct: also called Human Neutrophil Elastase
T2 sequence (looked up): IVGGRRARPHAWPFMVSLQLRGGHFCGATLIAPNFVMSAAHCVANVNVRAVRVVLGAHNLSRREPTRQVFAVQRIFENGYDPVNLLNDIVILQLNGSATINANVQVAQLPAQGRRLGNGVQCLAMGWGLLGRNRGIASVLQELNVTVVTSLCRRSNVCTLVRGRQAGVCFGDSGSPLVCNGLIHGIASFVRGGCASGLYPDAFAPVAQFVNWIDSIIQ


Key:
[1] = target: T3, hK1 (human tissue kallikrein 1), recombinant (human, UniProt P06870 25-262); assay: SPR
T3 construct: Expressed in P. pastoris from KLK1 cDNA and purified; enzymatically active; also called KLK1; Recombinant (Pichia) Kallikrein

[2] = target: T3, hK1 (human tissue kallikrein 1), …; assay: cell-based or functional assay
[3] = target: T3, hK1 (human tissue kallikrein 1), …; assay: SPR, biotinylated hK1 on streptavidin chip; Fab 50 nM after DX-2300 50 nM (competitor DX-2300)
Source text: Epitope grouping by SPR. Biotinylated hK1 was captured on a streptavidin coated chip to a final ligand density of 88 RU. […] The signal at the end of the injection of the Fab alone is R2.

[4] = target: kallikrein-like activity in sheep urine (tissue kallikrein, K1) (sheep); assay: cell-based or functional assay
[5] = target: Human Tissue Kallikrein 2 (hK2) (human, UniProt P20151 25-261); assay: protease inhibition assay, Fab up to 1 µM;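 further: protease and Fab preincubated 1 h at room temperature, then substrate added, fluorescence plate-reader monitoring of substrate hydrolysis rate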
Procedure: (§1) Selected antibodies were tested for their ability to inhibit other proteases.
(§2) Assays were performed in black, 96 well, round bottomed microplates in a total volume of 100 μL. Enzyme and Fab inhibitor were incubated in the dark at room temperature for 1 hour prior to the addition of the indicated amount of substrate. The rate of enzymatic substrate hydrolysis was then monitored using the Spectramax Gemini XS fluorescence plate reader using the wavelengths listed in Table 3.

[6] = target: Human Tissue Kallikrein 3 (hK3, PSA) (human, UniProt P07288 25-261); assay: protease inhibition assay, Fab up to 1 µM;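 further: protease and Fab preincubated 1 h at room temperature, then substrate added, fluorescence plate-reader monitoring of substrate hydrolysis rate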
Procedure: as §1, §2

[7] = target: Human Tissue Kallikrein 4 (hK4) (human, UniProt Q9Y5K2 31-254); assay: protease inhibition assay, Fab up to 1 µM;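 further: protease and Fab preincubated 1 h at room temperature, then substrate added, fluorescence plate-reader monitoring of substrate hydrolysis rate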
Procedure: as §1, §2

[8] = target: Human Tissue Kallikrein 5 (hK5) (human, UniProt Q9Y337 67-293, limits assumed); assay: protease inhibition assay, Fab up to 1 µM;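 further: protease and Fab preincubated 1 h at room temperature, then substrate added, fluorescence plate-reader monitoring of substrate hydrolysis rate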
Procedure: as §1, §2

[9] = target: T1, Human Tissue Kallikrein 8 (hK8); assay: protease inhibition assay, Fab up to 1 µM
Procedure: as §1, §2

Human plasma kallikrein = Human plasma kallikrein (human, UniProt P03952 20-638); assay: protease inhibition assay, Fab up to 1 µM
Procedure: as §1, §2

Human plasmin = Human plasmin (human, UniProt P00747 97-810); assay: protease inhibition assay, Fab up to 1 µM
Procedure: as §1, §2

Human urokinase = Human urokinase (human, UniProt P00749 21-431, limits assumed); assay: protease inhibition assay, Fab up to 1 µM
Procedure: as §1, §2

Human trypsin = target: T4, Human trypsin (human, UniProt P07477 24-247); assay: protease inhibition assay, Fab up to 1 µM
T4 construct: also called Human Pancreatic Trypsin
Procedure: as §1, §2

Human elastase = target: T2, Human elastase; assay: protease inhibition assay, Fab up to 1 µM
Procedure: as §1, §2

[10] = target: Human activated protein kinase C (human); assay: protease inhibition assay, Fab up to 1 µM
Procedure: as §1, §2

Human chymotrypsin = Human chymotrypsin (human, UniProt P17538 19-263); assay: protease inhibition assay, Fab up to 1 µM
Procedure: as §1, §2

Human thrombin = Human thrombin (human, UniProt P00734 328-622); assay: protease inhibition assay, Fab up to 1 µM
Procedure: as §1, §2

Chain of Human Tissue Kallikrein 5 (hK5) (Q9Y337 67-293 limits assumed): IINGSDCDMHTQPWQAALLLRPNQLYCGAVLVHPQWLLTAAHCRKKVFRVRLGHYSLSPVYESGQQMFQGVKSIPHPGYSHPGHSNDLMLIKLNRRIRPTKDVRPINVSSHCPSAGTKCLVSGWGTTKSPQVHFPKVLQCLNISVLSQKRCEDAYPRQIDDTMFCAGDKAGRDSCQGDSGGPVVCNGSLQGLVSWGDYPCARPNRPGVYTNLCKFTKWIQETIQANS
Chain of Human activated protein kinase C (human) (P04070 43-197, chain 1 of 2): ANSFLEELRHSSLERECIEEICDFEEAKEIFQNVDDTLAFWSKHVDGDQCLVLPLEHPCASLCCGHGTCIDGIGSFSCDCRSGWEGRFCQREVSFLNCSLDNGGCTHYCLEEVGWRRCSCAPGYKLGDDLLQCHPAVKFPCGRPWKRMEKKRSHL
Chain of Human activated protein kinase C (human) (P04070 212-461, chain 2 of 2): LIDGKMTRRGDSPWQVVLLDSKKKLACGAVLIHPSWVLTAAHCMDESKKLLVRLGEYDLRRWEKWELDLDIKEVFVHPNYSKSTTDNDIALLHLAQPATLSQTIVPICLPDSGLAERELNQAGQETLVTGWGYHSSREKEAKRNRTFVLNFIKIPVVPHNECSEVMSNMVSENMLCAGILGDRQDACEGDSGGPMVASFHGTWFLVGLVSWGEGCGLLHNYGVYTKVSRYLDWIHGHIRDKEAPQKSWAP
Chain of Human Tissue Kallikrein 4 (hK4) (Q9Y5K2 31-254 limits assumed): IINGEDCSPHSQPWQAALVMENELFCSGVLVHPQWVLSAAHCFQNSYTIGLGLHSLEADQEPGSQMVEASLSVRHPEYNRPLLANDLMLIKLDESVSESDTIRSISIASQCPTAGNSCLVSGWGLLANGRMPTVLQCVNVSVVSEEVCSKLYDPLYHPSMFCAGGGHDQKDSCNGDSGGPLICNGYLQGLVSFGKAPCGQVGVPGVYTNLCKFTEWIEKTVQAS
Chain of Human Tissue Kallikrein 2 (hK2) (P20151 25-261 limits assumed): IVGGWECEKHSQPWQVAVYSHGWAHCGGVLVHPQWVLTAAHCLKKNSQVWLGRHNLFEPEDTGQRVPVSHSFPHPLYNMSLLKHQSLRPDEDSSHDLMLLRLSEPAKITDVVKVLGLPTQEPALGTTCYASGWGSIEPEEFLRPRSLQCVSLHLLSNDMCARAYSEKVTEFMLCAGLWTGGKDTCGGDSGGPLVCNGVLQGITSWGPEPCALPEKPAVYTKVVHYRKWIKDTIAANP
Chain of Human Tissue Kallikrein 3 (hK3, PSA) (P07288 25-261 limits assumed): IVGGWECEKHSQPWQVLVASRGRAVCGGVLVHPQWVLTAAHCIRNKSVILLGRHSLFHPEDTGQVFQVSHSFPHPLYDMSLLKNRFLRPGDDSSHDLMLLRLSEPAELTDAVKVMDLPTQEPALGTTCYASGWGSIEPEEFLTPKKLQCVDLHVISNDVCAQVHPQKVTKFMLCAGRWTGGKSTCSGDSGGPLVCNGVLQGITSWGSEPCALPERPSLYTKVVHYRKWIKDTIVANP
Chain of Human plasmin (P00747 97-810 limits assumed): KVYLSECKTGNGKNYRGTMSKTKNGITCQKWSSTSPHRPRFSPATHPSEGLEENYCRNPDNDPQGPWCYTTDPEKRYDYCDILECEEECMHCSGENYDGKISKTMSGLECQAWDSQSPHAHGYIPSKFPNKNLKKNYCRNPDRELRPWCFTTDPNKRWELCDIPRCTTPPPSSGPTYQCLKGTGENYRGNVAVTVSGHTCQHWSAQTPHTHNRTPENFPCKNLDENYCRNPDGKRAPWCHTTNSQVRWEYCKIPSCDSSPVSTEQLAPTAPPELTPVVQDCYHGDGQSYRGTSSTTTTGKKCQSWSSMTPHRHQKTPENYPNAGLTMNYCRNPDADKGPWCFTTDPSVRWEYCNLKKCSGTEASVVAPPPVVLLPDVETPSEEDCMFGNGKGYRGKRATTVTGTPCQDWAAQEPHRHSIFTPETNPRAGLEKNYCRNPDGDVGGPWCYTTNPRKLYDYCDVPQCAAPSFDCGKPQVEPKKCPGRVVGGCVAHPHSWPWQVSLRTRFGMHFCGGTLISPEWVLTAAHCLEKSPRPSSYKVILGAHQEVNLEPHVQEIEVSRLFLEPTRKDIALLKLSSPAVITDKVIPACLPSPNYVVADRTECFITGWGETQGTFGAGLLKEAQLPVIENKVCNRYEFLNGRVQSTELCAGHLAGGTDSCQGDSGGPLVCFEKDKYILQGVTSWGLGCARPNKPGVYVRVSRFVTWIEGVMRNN
Chain of Human plasma kallikrein (P03952 20-638 limits assumed): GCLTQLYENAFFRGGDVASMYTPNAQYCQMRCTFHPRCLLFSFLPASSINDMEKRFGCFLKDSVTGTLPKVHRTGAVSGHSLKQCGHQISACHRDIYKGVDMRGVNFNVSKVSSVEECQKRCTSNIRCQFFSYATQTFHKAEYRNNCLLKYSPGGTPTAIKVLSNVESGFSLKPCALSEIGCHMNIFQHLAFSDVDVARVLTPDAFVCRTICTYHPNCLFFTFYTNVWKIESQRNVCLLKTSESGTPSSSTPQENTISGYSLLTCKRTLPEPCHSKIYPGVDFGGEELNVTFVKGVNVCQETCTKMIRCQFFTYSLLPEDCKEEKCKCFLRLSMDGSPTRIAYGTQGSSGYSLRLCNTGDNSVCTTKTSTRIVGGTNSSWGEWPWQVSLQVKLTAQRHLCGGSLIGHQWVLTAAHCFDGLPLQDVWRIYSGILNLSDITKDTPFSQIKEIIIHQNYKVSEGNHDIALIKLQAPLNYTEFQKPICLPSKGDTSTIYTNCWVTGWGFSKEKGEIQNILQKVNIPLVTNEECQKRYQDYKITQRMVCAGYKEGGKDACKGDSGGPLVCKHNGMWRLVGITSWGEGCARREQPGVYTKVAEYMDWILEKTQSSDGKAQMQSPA
Chain of Human chymotrypsin (P17538 19-263): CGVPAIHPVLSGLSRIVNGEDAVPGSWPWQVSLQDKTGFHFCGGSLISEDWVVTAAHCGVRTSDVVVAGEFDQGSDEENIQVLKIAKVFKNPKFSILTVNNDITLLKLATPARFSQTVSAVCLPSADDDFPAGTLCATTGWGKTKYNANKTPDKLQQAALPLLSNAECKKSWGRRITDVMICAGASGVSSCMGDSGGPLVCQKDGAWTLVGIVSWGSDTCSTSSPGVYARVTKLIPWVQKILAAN

Row | Binder | Kd [1] | koff [1] | kon [1] | IC50 (nM), inhibition of hK1 hydrolysis of Pro-Phe-Arg-AMC [2] | Fab Signal following DX-2300 (R1) [3] | other results
1 | M0136-A07 (Fab, V domains shown, No HC-136-A07 entry is printed) VH: EVQLLESGGGLVQPGGSLRLSCAASGFTFSWYHMYWVRQAPGKGLEWVSYIRPSGGNTNYADSVKGRFTISRDNSKNTLYLQMNSLRAEDTAMYYCARDRRGYSSSKGYYYYGMDVWGQGTTVTVSS VL: not shown | 7.98 nM | 0.00258 s⁻¹ | 323000 M⁻¹ s⁻¹ | – | 5 | IC50 (nM), inhibition of hK1 enzyme activity [2]: 25 nM
2 | M0139-A09 (Fab, V domains shown) VH: EVQLLESGGGLVQPGGSLRLSCAASGFTFSWYFMVWVRQAPGKGLEWVSGIGPSGGLTTYADSVKGRFTISRDNSKNTLYLQMNSLRAEDTAVYYCARSDWLNYWGQGTLVTVSS VL: DIVMTQTPPSLPVNPGEPASISCRSSQSLVYSDGNTYLNWFQQRPGQSPRRLIYKVSNRDSGVPDRFSGSGSGTDFTLKISRVEAEDVGVYYCMQGTHWQRLTFGGGTKVEIKR | 5.48 nM | 0.00106 s⁻¹ | 194000 M⁻¹ s⁻¹ | – | 25.7 | IC50 (nM), inhibition of hK1 enzyme activity [2]: 34 nM
3 | M0117-F04 (Fab, V domains shown) VH: EVQLLESGGGLVQPGGSLRLSCAASGFTFSMYVMNWVRQAPGKGLEWVSRIGSSGGGTLYADSVKGRFTISRDNSKNTLYLQMNSLRAEDTAVYYCARVSVYRIRNYYYYAMDVWGQGTTVTVSS VL: DIQMTQSPSSLSASVGDRVTITCRASQGIGNYLAWYQQKPGKAPNLLIYKTSNLQSGVPSRFRGSGSGTEFTLTITSVQPDDFATYFCQRYDSYSQYIFGQGTKLETKR | 6.61 nM | 0.00197 s⁻¹ | 298000 M⁻¹ s⁻¹ | 5.2 nM | 6.7 | –
4 | M0112-D07 (Fab, V domains shown) VH: EVQLLESGGGLVQPGGSLRLSCAASGFTFSFYSMSWVRQAPGKGLEWVSRIRPSGGRTDYADSVKGRFTISRDNSKNTLYLQMNSLRAEDTAVYYCARDRLYYYGSGSYYYGAFDIWGQGTMVTVSS VL: DIQMTQSPSSLSASVGDRVTITCRASQTIRTYLNWYQQKPGIAPKFLIYDASNLQTGVPSRFSGSGSGTHFTLTISSLQPEDFGTYYCQQSYGGPPTFGRGTKIEIKR | 5.81 nM | 0.000781 s⁻¹ | 134000 M⁻¹ s⁻¹ | – | 3 | IC50 (nM), inhibition of hK1 enzyme activity [2]: > 120 nM
5 | M0139-F04 (Fab, V domains shown) VH: EVQLLESGGGLVQPGGSLRLSCAASGFTFSRYYMEWVRQAPGKGLEWVSSISSSGGSTEYADSVKGRFTISRDNSKNTLYLQMNSLRAEDTAVYYCAKDITPGGGSGFRLPKNYYYYGMDVWGQGTTVTVSS VL: DIQMTQSPSSLSASVGDRVTITCRASQAISTNLNWYQQKPGKAPKLLIYAASSLQSGVPSRFIGSGSGTDFTLTISSLHPEDFATYHCQQTFSPPHTFGQGTKVEIQR | 7.27 nM | 0.00134 s⁻¹ | 184000 M⁻¹ s⁻¹ | 20.7 nM | – | –
6 | DX-2300 (format not stated) (antibody, V domains shown) VH: EVQLLESGGGLVQPGGSLRLSCAASGFTFSKYKMVWVRQAPGKGLEWVSSIYPSGGITAYADSVKGRFTISRDNSKNTLYLQMNSLRAEDTAMYYCAKDITPGGGSGFRLPKNYYYYGMDVWGQGTTVTVSS VL: not shown | – | – | – | – | – | IC50 of kallikrein-like activity in activated urine (Pro-Phe-Arg-AMC) [4]: 2.9 nM
7 | M0102-G12 (Fab, V domains shown) VH: EVQLLESGGGLVQPGGSLRLSCAASGFTFSKYKMVWVRQAPGKGLEWVSSIYPSGGITAYADSVKGRFTISRDNSKNTLYLQMNSLRAEDTAMYYCAKDITPGGGSGFRLPKNYYYYGMDVWGQGTTVTVSS VL: AQSELTQPPSASGTPGQRVTISCSGTLSNIGTNIVSWFQQLPGTAPKLLIYNDHRRPSGVPDRFSGSKSATSASLAISGLQSEDEADYYCAAWDDSLNGVVFGGGTKLTVLS | 5.28 nM | 0.000442 s⁻¹ | 83700 M⁻¹ s⁻¹ | 3.3 nM | – | –
8 | DX-2300 (M0131-F07), Fab (Fab, V domains shown) VH: EVQLLESGGGLVQPGGSLRLSCAASGFTFSKYKMVWVRQAPGKGLEWVSSIYPSGGITAYADSVKGRFTISRDNSKNTLYLQMNSLRAEDTAMYYCAKDITPGGGSGFRLPKNYYYYGMDVWGQGTTVTVSS VL: not shown | – | – | – | – | – | Ki [5]: > 1000 nM; Ki [6]: > 1000 nM; Ki [7]: > 1000 nM; Ki [8]: > 1000 nM; Ki [9]: > 1000 nM; Ki (Human plasma kallikrein): > 1000 nM; Ki (Human plasmin): > 1000 nM; Ki (Human urokinase): > 1000 nM; Ki (Human trypsin): > 1000 nM; Ki (Human elastase): > 1000 nM; Ki [10]: > 1000 nM; Ki (Human chymotrypsin): > 1000 nM; Ki (Human thrombin): > 1000 nM

Second part, led by results:

Row | Kd [1] | koff [1] | kon [1] | IC50 (nM), inhibition of hK1 hydrolysis of Pro-Phe-Arg-AMC [2] | Fab Signal following DX-2300 (R1) [3] | Binder | other results
9 | 1.91 nM | 0.00159 s⁻¹ | 836000 M⁻¹ s⁻¹ | 2.5 nM | 8.5 | M0098-E09 (Fab, V domains shown) VH: EVQLLESGGGLVQPGGSLRLSCAASGFTFSRYGMQWVRQAPGKGLEWVSYIYPSGGGTVYADSVKGRFTISRDNSKNTLYLQMNSLRAEDTAVYYCARRVAVAGSWYYYYYGMDVWGQGTTVTVSS VL: DIQMTQSPSSVSASVGDSVTISCWTIYDISSWLAWYQQRPGQAPKLLIYAASRLATGVPSRFRGSGSGTDFTLTITNLQPEDVATYYCQQTKDFPLTFGGGTRVDLKR | –
10 | 0.999 nM | 0.000166 s⁻¹ | 167000 M⁻¹ s⁻¹ | 1.2 nM | 4.8 | M0114-G06 (Fab, V domains shown) VH: EVQLLESGGGLVQPGGSLRLSCAASGFTFSYYEMEWVRQAPGKGLEWVSSIRPSGGRTVYADSVKGRFTISRDNSKNTLYLQMNSLRAEDTAVYYCAKGRSNYYGSGSYSPKYFQHWGQGTLVTVSS VL: DIQMTQSPSSLSASVGDRVTITCRASQGISSWLAWYQQRPERAPKSLIYAASSLERGVPSRFRGSGSGTDFTLTISSLQPEDFGTYYCQQYHNFPLTFGGGTRVEINR | –
11 | 2.69 nM | 0.000138 s⁻¹ | 51300 M⁻¹ s⁻¹ | 10.1 nM | 2.3 | M0134-D07 (Fab, V domains shown) VH: EVQLLESGGGLVQPGGSLRLSCAASGFTFSRYFMIWVRQAPGKGLEWVSSIVPSGGPTRYADSVKGRFTISRDNSKNTLYLQMNSLRAEDTAVYYCARRGPVYYYDSSGSHSAFDIWGQGTMVTVSS VL: DIQMTQSPSSLSASVGDRVTITCRASQGIRNDLGWYQQKPGKAPKLLIYAASSLQSGVPSRFSGSGSGTDFTLTISSLQPEDFATYYCLQDYNYPRTFGQGTKVEIKR | –
12 | 1.87 nM | 0.000233 s⁻¹ | 125000 M⁻¹ s⁻¹ | 2.9 nM | – | M0139-E12 (Fab, V domains shown) VH: EVQLLESGGGLVQPGGSLRLSCAASGFTFSWYSMNWVRQAPGKGLEWVSSIGPSGGGTKYADSVKGRFTISRDNSKNTLYLQMNSLRAEDTAVYYCASRGQRKQWLPPNGAFDIWGQGTMVTVSS VL: DIQMTQSPSSVSASVGDRVTMTCRASRGISNWLAWYQQKPGKAPELLIHSASTLHAGVPSRFSGSGSGTDFTLTISSLQPGDFATYYCQEGNSFPYTFGQGTNLQIKR | –
13 | 3.24 nM | 0.00741 s⁻¹ | 2.29e+06 M⁻¹ s⁻¹ | 4.5 nM | – | M0102-H11 (Fab, V domains shown) VH: EVQLLESGGGLVQPGGSLRLSCAASGFTFSKYPMTWVRQAPGKGLEWVSSISSSGGKTQYADSVKGRFTISRDNSKNTLYLQMNSLRAEDTAVYYCTRGGSSTLYFMDVWGQGTTVTVSS VL: DIQMTQSPATLSLSPGERATLSCRASQSVSSYLAWYQQKPGQAPRLLIYGASSRATGIPDRFSGSGSGTDFTLTISSLEPEDFAVYYCQQRGGWPLTFGGGTKVEIRR | –
